Data reported in paper PMC12473205, “Characterization of the Soybean GPAT Gene Family Identifies GmGPAT1 as a Key Protein in Salt Stress Tolerance” (Plants, 2025).

Substrate: O=P(O)(O)OC[C@H](O)CO
Test: purified protein
Format: biochemical, Glycine max
Conditions: 0.1 M phosphate buffer pH 7.2, acyl-CoA co-substrate not named, methods text mentions membrane protein, conclusions print 36.5 mmol L^-1

B1: GmGPAT1 (Glycine max) (protein)
chain: MSTTGSSAYHCVAHLPNNKTMFMLSTPPTTTFFATPRVLPFLSSKLSSSSSSSTASSSPCCSSITPKVKSKDNNNCYLVSAKHSPANMSASVSSRTFLNARNEQELLAGIRKEVEAGSLPANVAAGMEEVYNNYKSAVIQSGDPKSKEIVLSNMIALLDRIFLDVTDPFVFQPHHKAKREPFDYYVFGQNYIRPLVDFKNSYVGNMPLFIEMEEKLKQGHNIILMSNHQTEADPAIIALLLETRLPYIAENMTYVAGDRVITDPLSKPFSIGRNLICVYSKKHMLDDPALVEMKRNANIRALKEMAMLLRSGSQIVWIAPSGGRDRPDPHTGEWAPAPFDTSSVDNMRRLVEHSGPPGHVYPLAILCHDIMPPPLKVEKEIGEKRIISFHGTGISVAPALSFSETTATSENPEKAKEVFTKALYDSVTEQYNVLKSAIHGKKGFEASTPVVSLSQSWK
Km: 36.47 mM
